Source: PMC5583147

Assays:
C3b-B complex [1] = target: C3b-B complex (UniProt P01024); test: SPR; C3b amine-coupled on CM5 chip; Biacore T100, 25 C; HBS-N with 2 mM NiCl2; factor B 54 nM, Lufaxin 1 uM, together or Lufaxin after formation of C3b-B
C3b-B complex [2] = target: C3b-B complex (UniProt P01024); test: SPR; C3b amine-coupled on CM5 chip; Biacore T100, 25 C; HBS-N (10 mM HEPES pH 7.4, 150 mM NaCl) with 2 mM MgCl2; factor B 54 nM, factor D 20 nM, Lufaxin up to 1 uM injected in combinations
C3b = C3b (UniProt P01024); test: SPR; C3b amine-coupled on CM5 chip; Biacore T100, 25 C; HBS-N with 2 mM NiCl2; factor B 54 nM, Lufaxin 1 uM, together or Lufaxin after formation of C3b-B

Lufaxin, sequence (Q5WPU8 24-301 limits assumed): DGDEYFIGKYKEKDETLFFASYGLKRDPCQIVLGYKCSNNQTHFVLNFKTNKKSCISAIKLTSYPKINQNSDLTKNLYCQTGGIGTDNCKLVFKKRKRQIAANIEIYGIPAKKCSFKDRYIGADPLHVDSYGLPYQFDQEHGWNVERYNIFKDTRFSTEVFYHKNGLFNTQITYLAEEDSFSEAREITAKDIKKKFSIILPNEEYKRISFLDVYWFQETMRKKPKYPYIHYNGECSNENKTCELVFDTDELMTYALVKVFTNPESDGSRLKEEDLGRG
UniProt P01024, sequence (P01024 23-667, chain 1 of 2): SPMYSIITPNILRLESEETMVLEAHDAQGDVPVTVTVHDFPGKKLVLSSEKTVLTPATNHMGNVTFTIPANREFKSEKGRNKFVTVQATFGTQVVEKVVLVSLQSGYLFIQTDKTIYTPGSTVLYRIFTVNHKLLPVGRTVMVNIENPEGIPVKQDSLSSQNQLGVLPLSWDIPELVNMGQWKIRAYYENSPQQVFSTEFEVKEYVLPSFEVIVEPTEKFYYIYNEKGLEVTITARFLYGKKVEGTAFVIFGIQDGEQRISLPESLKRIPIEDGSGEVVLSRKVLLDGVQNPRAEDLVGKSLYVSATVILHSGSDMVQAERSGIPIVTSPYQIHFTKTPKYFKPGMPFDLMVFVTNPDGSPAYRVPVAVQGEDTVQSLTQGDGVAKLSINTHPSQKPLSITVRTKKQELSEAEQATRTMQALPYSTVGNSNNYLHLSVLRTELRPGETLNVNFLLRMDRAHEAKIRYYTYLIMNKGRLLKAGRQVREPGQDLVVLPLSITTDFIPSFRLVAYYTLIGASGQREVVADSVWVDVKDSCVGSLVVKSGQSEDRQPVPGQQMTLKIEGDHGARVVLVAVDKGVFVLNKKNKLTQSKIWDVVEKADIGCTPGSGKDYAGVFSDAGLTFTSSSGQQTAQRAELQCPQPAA
UniProt P01024, sequence (P01024 749-1663, chain 2 of 2): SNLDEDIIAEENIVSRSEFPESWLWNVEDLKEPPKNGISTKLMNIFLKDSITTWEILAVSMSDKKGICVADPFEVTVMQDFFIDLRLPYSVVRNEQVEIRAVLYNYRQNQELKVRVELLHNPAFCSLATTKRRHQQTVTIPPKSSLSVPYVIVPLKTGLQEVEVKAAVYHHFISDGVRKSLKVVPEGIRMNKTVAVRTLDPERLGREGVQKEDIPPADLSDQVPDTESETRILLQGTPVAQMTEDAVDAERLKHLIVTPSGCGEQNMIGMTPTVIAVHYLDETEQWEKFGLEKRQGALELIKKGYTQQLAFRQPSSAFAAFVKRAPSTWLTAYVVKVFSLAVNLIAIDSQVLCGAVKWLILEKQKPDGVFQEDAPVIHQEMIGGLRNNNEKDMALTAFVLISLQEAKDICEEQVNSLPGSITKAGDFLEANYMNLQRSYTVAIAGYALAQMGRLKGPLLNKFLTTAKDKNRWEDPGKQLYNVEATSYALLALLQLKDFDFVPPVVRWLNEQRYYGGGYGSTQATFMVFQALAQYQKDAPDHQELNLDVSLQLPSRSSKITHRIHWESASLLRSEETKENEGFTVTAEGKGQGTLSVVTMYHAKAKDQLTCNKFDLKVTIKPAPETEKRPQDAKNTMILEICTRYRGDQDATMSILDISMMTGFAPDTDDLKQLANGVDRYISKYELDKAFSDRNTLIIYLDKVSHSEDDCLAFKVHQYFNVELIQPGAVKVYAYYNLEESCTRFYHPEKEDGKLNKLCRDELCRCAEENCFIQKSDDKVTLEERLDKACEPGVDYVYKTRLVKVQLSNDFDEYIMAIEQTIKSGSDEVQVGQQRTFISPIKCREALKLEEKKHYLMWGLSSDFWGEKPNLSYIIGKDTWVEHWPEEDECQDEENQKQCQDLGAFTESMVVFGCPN

Substance	half-time of dissociation of C3b-B-Lufaxin from the C3b surface (Ni2+) (C3b-B complex [1]) [s]	half-time of dissociation of C3b-B-Lufaxin from the C3b surface (Mg2+) (C3b-B complex [2]) [s]	half-time of dissociation of C3b-B (Ni2+) (C3b) [s]
Lufaxin (natural protein)	400	135	–
factor B (natural protein)	–	–	600
